Data as given in US20170210824A1 (SALK INSTITUTE FOR BIOLOGICAL STUDIES, published 2017).
*1 amine or outer side, *2 acyl side, *3 side chain or, on linkers, in order; H or OH if unused. Where no end group is shown, it is not given here. [ ]: non-standard residue; d: D form. 3‑pTza = 3-phosphoryltriazolylalanine, non-hydrolysable phosphonate triazole analogue of 3-phosphohistidine, O=C([C@H](Cn1cc(P(=O)(O)O)nn1)N[*:1])[*:2]; pY = N[C@@H](Cc1ccc(OP(=O)(O)O)cc1)C(=O)O

T1: Eck (Ephrin A2) Y588 peptide (CLKPLKTYVD)
T1 construct: also called unphosphorylated Eck peptide
T1 peptide: CLKPLKTYVD

T2: Nck pY105 peptide (CGERLpYDLNMPAYVK)
T2 construct: also called pTyr (NCK) peptide; pTyr peptide (Nck pY105)
T2 peptide: CGERL[pY]DLNMPAYVK

T3: Eck (Ephrin A2) pY588 peptide (CLKPLKTpYVD)
T3 construct: also called Eck/EphA2 pTyr peptide
T3 peptide: CLKPLKT[pY]VD

T4: FAK pY397 peptide (AVSVSETDDpYAEIIDEEDTYT) (phosphotyrosine at position 10 (pY397))
T4 construct: also called FAK pTyr peptide
T4 peptide: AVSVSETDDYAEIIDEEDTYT

T5: Nck Y105 peptide (CGERLYDLNMPAYVK)
T5 construct: also called unphosphorylated Nck peptide
T5 peptide: CGERLYDLNMPAYVK

T6: Peptide-3C (NME1 H118, 3-pTza) (mammalian, N-terminus assumed; SMILES …)
T6 construct: also called RNII-3-pTza-GSDS
T6 peptide: RNII[3‑pTza]GSDS-NH2

T7: Peptide-4C (Histone H4 H18, 3-pTza) (mammalian, N-terminus assumed; SMILES …)
T7 construct: also called GAKR-3-pTza-RKVL
T7 peptide: GAKR[3‑pTza]RKVL-NH2

T8: Peptide-2C (PGAM H11, 3-pTza) (mammalian, N-terminus assumed; SMILES …)
T8 construct: also called VLIR-3-pTza-GESA; PGAM peptide
T8 peptide: VLIR[3‑pTza]GESA-NH2

T9: Peptide-1C (ACLY-like H760, 3-pTza) (N-terminus assumed; SMILES C[C@H](N)C(=O)NCC(=O)N[C@@H](C)C(=O)NCC(=O)N[C@@H](Cn1cc(P(=O)(O)O)nn1)C(=O)N[C@@H](C)C(=O)NCC(=O)N[C@@H](C)C(=O)NCC(N)=O)
T9 construct: also called AGAG-3-pTza-AGAG; A/G motif peptide (based on ACLY)
T9 peptide: AGAG[3‑pTza]AGAG-NH2

T10: ACLY (ATP-citrate lyase), 3-pHis on H760 (mammalian, UniProt P53396 1-1101, 3-phosphohistidine at H760)
T10 sequence (looked up): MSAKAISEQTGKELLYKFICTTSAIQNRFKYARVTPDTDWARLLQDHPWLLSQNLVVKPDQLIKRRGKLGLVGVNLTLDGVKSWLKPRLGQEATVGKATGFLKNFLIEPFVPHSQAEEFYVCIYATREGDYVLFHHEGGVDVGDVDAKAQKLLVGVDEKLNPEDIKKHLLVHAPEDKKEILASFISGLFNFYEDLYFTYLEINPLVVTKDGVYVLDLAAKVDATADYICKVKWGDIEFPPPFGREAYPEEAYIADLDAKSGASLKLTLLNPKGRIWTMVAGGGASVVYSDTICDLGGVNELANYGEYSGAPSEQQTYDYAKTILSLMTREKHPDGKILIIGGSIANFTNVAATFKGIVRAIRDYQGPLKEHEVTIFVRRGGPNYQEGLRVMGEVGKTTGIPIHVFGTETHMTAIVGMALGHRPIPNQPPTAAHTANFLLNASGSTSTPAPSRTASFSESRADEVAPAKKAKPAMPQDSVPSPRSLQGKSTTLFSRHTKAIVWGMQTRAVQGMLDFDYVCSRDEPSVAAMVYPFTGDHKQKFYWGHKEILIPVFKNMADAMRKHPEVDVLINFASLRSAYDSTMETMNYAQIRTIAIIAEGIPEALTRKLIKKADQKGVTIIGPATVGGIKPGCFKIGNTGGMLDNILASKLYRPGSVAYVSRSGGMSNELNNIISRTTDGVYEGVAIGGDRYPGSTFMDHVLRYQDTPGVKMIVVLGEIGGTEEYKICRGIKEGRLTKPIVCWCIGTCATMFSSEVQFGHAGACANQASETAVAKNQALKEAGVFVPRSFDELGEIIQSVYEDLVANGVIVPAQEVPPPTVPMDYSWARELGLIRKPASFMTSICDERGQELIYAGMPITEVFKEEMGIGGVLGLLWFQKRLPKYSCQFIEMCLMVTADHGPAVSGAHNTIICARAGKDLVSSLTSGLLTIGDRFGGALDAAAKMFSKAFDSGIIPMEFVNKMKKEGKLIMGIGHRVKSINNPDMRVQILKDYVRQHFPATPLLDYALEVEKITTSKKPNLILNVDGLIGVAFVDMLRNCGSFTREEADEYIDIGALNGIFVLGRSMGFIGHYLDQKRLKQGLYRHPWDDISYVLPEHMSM

B1: 3-pHis mAb SC56-2 (antibody, V domains shown)
VH: SVKESEGGLIKPGGILTLTCTASGFSLSSYGFSWVRQAPGKGLEHIGYLHANGRAYYATWAKSRSTITRNTNLNTVTLQLTSLTAADTATYFCAKIGSVSDVAIWGPGTLVTVSS
VL: DPVMTQTPSSTSAAVGGTVTINCQSSESIYNNKNLAWYQQKPGQSPRRLIYSISTLASGVSSRFKGSGSGTQFTLTISDVQCDDAATYYCVGYYYSGGYYYSGSAAYYAFGGGTEVVVKG
notes: Rabbit hybridoma monoclonal IgG; also called SC56s (subclones of MC56)
B2: 3-pHis mAb SC44-8 (antibody, V domains shown)
VH: ESGRGLVQPGGSLTLTCTASGFSIDSYGFSWVRQAPGKGLEHIGYLTAGGRAFYASWAKSRSTITRNTNENTVTLKMTSLTAADTATYFCAKLGSGNPVAIWGPGTLVTVSS
VL: DPVMTPTPSFTSAAVGGTVTINCQSSQSVWRNKNLAWYQQKPGQPPKRLIYAIATLDSGVPSRFSGSGSGTQFTLTISDVQCDDAATYYCVGHYGSENDAYYAFGGGTEVVVKG
notes: Rabbit hybridoma monoclonal IgG; also called SC44s (subclones of MC44)

Legend:
[1] = target: T1, Eck (Ephrin A2) Y588 peptide …; assay: pTyr peptide dot blot
[2] = target: T2, Nck pY105 peptide (CGERLpYDLNMPAYVK); assay: pTyr peptide dot blot
[3] = target: T3, Eck (Ephrin A2) pY588 peptide …; assay: pTyr peptide dot blot
[4] = target: T4, FAK pY397 peptide …; assay: pTyr peptide dot blot
[5] = target: T5, Nck Y105 peptide (CGERLYDLNMPAYVK); assay: pTyr peptide dot blot
[6] = target: T6, Peptide-3C (NME1 H118, 3-pTza); assay: 3-pTza peptide dot blot array
Description: (§1) The 3-pHis antibodies bound only the 3-pTza peptides and the 1-pHis antibodies bound only the 1-pTza peptides, regardless of sequence (FIG. 4A). Identical membranes were probed with 1-pHis mAbs as part of our screening process to select mAbs with the broadest sequence recognition (FIG. 4B). […] 3-pHis mAb SC39-4 was able to detect all 3-pTza peptides down to 800 pg; however, binding to the KCa3.1 peptide was relatively poor (100 ng). […] SC44 detected the A/G motif peptide (based on ACLY) and the immunizing peptide library down to 160 pg and 800 pg respectively, confirming its sequence bias.
(§2) pTza peptide dot blot arrays: 1-pTza, 3-pTza or His was incorporated into synthetic peptides of defined sequences from mammalian proteins with mapped pHis sites. The peptides used were as follows: ACLY-like H760 (AGAG-X-AGAG, SEQ ID NO: 62), PGAM H11 (VLIR-X-GESA, SEQ ID NO: 63), NME1 H118 (RNII-X-GSDS, SEQ ID NO: 64), Histone H4 H18 (GAKR-X-RKVL, SEQ ID NO: 65), KCa3.1 H358 (VRLK-X-RKLR, SEQ ID NO: 66) and GNB1 H266 (MTYS-X-DNII, SEQ ID NO: 67) where X=His, 1-pTza or 3-pTza. Peptides were dissolved in water at a stock concentration of 1 mg/ml. 1:5 serial dilutions (500, 100, 20, […] ng/ul) were prepared for each peptide and 1 ul of each dilution was spotted on nitrocellulose membrane and allowed to dry for 1-2 hr at RT. […] Immunoblotting was performed as described above.

[7] = target: T7, Peptide-4C (Histone H4 H18, 3-pTza); assay: 3-pTza peptide dot blot array
Description: as §1, §2

[8] = target: T8, Peptide-2C (PGAM H11, 3-pTza); assay: 3-pTza peptide dot blot array
Description: as §1, §2

[9] = target: T9, Peptide-1C (ACLY-like H760, 3-pTza); assay: 3-pTza peptide dot blot array
Description: as §1, §2

[10] = target: T10, ACLY (ATP-citrate lyase), 3-pHis on H760; assay: immunoblot of mammalian cell lysates
Description: (§3) Immunoblotting with anti-pHis antibodies: In general, immunoblotting with anti-pHis antibodies was performed with modifications to standard procedures to help preserve pHis for detection. Buffers were adjusted to pH 8-9 to stabilize pHis and methods were modified to avoid heating samples. Protein samples were prepared in pH 8.8 sample buffer (5×=10% SDS, 250 mM Tris-HCl, pH 8.8, 0.02% Bromophenol blue, 50% glycerol, 50 mM EDTA, 500 mM DTT) for electrophoresis. Mammalian whole cell lysates were prepared by rinsing 70-100% confluent 10 cm² dishes twice with 5 ml cold TD buffer (TBS −/−, pH 8). Cells were scraped directly into 2× pH 8.8 sample buffer, incubated on ice and a cup horn sonicator was used (3-5×5 sec bursts) to disrupt cells and shear DNA. Lysates were clarified by centrifugation (14,000×g for 5-15 min at 4° C.) and analyzed immediately using freshly prepared Bis-Tris polyacrylamide minigels with a modified, pH 8.8 stacking gel and either 10% or 12.5% resolving gels. Electrophoresis buffer recipes were as follows: Running Buffer: (1×20 L, pH 8.5) 20 g SDS, 60 g Trizma Base, 288 g glycine, dH₂0 to 20 L, Transfer Buffer: (1×4 L, pH 8.5) 56.7 g glycine, 4 g SDS, 12 g Trizma Base, 800 ml MeOH, dH₂0 to 4 L. All electrophoresis steps were performed at 4° C. and samples were resolved at 90-100V for 2-3 hr. […]

[11] = target: T11, mammalian SCS (succinyl-CoA synthetase), 3-pHis on H299 (mammalian, UniProt P53597 41-346, 3-phosphohistidine at H299); assay: immunoblot of mammalian cell lysates
T11 construct: also called Phospho-SCS
T11 sequence (P53597 41-346): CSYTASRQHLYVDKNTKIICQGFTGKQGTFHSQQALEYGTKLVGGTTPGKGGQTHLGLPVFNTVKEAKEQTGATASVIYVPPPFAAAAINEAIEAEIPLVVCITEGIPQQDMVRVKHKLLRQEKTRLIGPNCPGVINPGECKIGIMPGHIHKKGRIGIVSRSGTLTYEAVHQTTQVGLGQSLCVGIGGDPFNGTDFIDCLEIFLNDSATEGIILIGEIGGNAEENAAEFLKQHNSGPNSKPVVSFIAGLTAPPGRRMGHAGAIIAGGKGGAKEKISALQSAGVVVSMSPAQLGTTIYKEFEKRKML
Description: as §3

[12] = target: T12, phospho-PGAM (phosphoglycerate mutase with 3-pHis on H11) (human, UniProt P18669 1-254, 3-phosphohistidine at H11); assay: immunoblot of HeLa and FLAG-NME1 293 cell lysates
T12 construct: Used both for the purified recombinant protein and for the endogenous protein in 293 cell lysates; also called pPGAM; in vitro phosphorylated PGAM
T12 sequence (P18669 whole entry): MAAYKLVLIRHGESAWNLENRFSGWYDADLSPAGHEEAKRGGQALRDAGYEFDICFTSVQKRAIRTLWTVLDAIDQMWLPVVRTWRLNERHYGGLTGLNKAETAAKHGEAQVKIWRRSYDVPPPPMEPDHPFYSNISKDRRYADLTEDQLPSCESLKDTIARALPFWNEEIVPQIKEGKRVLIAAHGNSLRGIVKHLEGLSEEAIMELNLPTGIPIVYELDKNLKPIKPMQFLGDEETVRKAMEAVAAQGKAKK
Description: FIGS. 6A-6E. 3-pHis Antibody Screening. (FIG. 6A) High throughput, slot blot screening of 3-pHis hybridoma subclones. Cell supernatants containing 3-pHis mAbs were screened as described using lysates from E. coli transformed with GST-PGAM. (FIG. 6B) Representative immunoblots using indicated subclones are shown. E. coli lysates identical to those used in ([…]) were treated with and without heating to 95° C. for 10 min to determine if the detected bands were heat-sensitive. Bacterial (FIG. 6B) and mammalian SCS (FIG. 6C) is detected by 3-pHis mAb SC44-8. (FIG. 6C) Mammalian cell lysates from HeLa and FLAG-NME1 293 cells were probed with mAb SC44-8. Phospho-SCS and ACLY, but not PGAM, is recognized by this mAb. (FIG. 6D) SCS H299 (SEQ ID NO: 69) is aligned with ACLY H760 (SEQ ID NO: 68) to highlight amino acids the flanking the pHis site are identical and have a G-pH-A-H-A motif that is different from the pHis site on PGAM at H11 (SEQ ID NO:70). […]
Immunoblotting with anti-pHis antibodies: In general, immunoblotting with anti-pHis antibodies was performed with modifications to standard procedures to help preserve pHis for detection. […] Lysates were clarified by centrifugation (14,000×g for 5-15 min at 4° C.) and analyzed immediately using freshly prepared Bis-Tris polyacrylamide minigels with a modified, pH 8.8 stacking gel and either 10% or 12.5% resolving gels.

| Binder | binding result [1] | binding result [2] | binding result [3] | binding result [4] | binding result [5] | binding result [6] | binding result [7] | binding result [8] | binding result [9] | binding result [10] | binding result [11] | binding result [12] |
| --- | --- | --- | --- | --- | --- | --- | --- | --- | --- | --- | --- | --- |
| B1 | no binding | no binding | no binding | no binding | no binding | binds | binds | binds | binds | – | – | – |
| B2 | no binding | no binding | no binding | no binding | no binding | – | – | – | – | binds | binds | no binding |
